B1: 041216-C05 (protein)
chain: MALPVTALLLPLALLLHAARPDIQMTQSPSSLSASVGDRVTITCRSSQSIVHSVGNTFLEWYQQKPGKAPKLLIYKVSNRFSGVPSRFSGSGSGTDFTLTISSLQPEDFATYYCFQGSQFPYTFGQGTKVEIKRLEGKPIPNPLLGLDSTGSGEDLKNVFPPEVAVFEPSKAEIAHTQKATLVCLATGFYPDHVELSWWVNGKEVHSGVCTDPQPLKEQPALNDSRYCLSSRLRVSATFWQNPRNHFRCQVQFYGLSENDEWTQDRAKPVTQIVSAEAWGRADCGITSASYHQGVLSATILYEILLGKATLYAVLVSALVLMAMVKRKDSRGRAKRSGSGATNFSLLKQAGDVEENPGPTSMDWIWRILFLVGAATGAHSFEEVQLVESGGGLVQPGGSLRLSCAASGYEFSRSWMNWVRQAPGKGLEWVGRIYPGDGDTNYSGKFKGRFTISADTSKNTAYLQMNSLRAEDTAVYYCARDGSSWDWYFDVWGQGTLVTVSSTREQKLISEEDGSGTPFPSLAPPIMLLVDGKQQMVVVCLVLDVAPPGLDSPIWFSAGNGSALDAFTYGPSPATDGTWTNLAHLSLPSEELASWEPLVCHTGPGAEGHSRSTQPMHLSGEASTARTCPQEPLRGTPGGALWLGVLRLLLFKLLLFDLLLTCSCLCDPAGPLPSPATTTRLRALGSHRLHPATETGGREATSSPRPQPRDRRWGDTPPGRKPGSPVRAKRSGSGVKQTLNFDLLKLAGDVESNPGPSRGHMTEYKPTVRLATRDDVPRAVRTLAAAFADYPATRHTVDPDRHIERVTELQELFLTRVGLDIGKVWVADDGAAVAVWTTPESVEAGAVFAEIGPRMAELSGSRLAAQQQMEGLLAPHRPKEPAWFLATVGVSPDHQGKGLGSAVVLPGVEAAERAGVPAFLETSAPRNLPFYERLGFTVTADVEVPEGPRTWCMTRKPGA
modifications: Polynucleotide encoding a Synthetic Immune Receptor (SIR)
B2: 050516-V06 (protein)
chain: MALPVTALLLPLALLLHAARPDIVMTQSPSSLSASVGDRVTITCKASQSVTNDVAWYQQKPGKAPKLLIYYASNRYTGVPSRFSGSGSGTDFTLTISSLQPEDFATYYCQQDYRSPWTFGGGTKVEIKRLEGKPIPNPLLGLDSTGSGEDLKNVFPPEVAVFEPSKAEIAHTQKATLVCLATGFYPDHVELSWWVNGKEVHSGVCTDPQPLKEQPALNDSRYCLSSRLRVSATFWQNPRNHFRCQVQFYGLSENDEWTQDRAKPVTQIVSAEAWGRADCGITSASYHQGVLSATILYEILLGKATLYAVLVSALVLMAMVKRKDSRGRAKRSGSGATNFSLLKQAGDVEENPGPTSMDWIWRILFLVGAATGAHSFEQVQLEESGGGVVRPGRSLRLSCAASGFTFSDYGVNWIRQAPGKGLEWVTIIWGDGRTDYNSALKSRFTVSRNNSNNTLSLQMNSLTTEDTAVYYCVRAPGNRAMEYWGQGVLVTVSSTREQKLISEEDGSGIQNPDPAVYQLRDSKSSDKSVCLFTDFDSQTNVSQSKDSDVYITDKCVLDMRSMDFKSNSAVAWSNKSDFACANAFNNSIIPEDTFFPSSDVPCDVKLVEKSFETDTNLNFQNLSVIGFRILLLKVAGFNLLMTLRLWSSRAKRSGSGVKQTLNFDLLKLAGDVESNPGPSRGHMTEYKPTVRLATRDDVPRAVRTLAAAFADYPATRHTVDPDRHIERVTELQELFLTRVGLDIGKVWVADDGAAVAVWTTPESVEAGAVFAEIGPRMAELSGSRLAAQQQMEGLLAPHRPKEPAWFLATVGVSPDHQGKGLGSAVVLPGVEAAERAGVPAFLETSAPRNLPFYERLGFTVTADVEVPEGPRTWCMTRKPGA
modifications: Synthetic Immune Receptor (SIR)
B3: 012517-E12 (protein)
chain: MALPVTALLLPLALLLHAARPLEGKPIPNPLLGLDSTGSGEDLKNVFPPEVAVFEPSKAEIAHTQKATLVCLATGFYPDHVELSWWVNGKEVHSGVCTDPQPLKEQPALNDSRYCLSSRLRVSATFWQNPRNHFRCQVQFYGLSENDEWTQDRAKPVTQIVSAEAWGRADCGITSASYHQGVLSATILYEILLGKATLYAVLVSALVLMAMVKRKDSRGRAKRSGSGATNFSLLKQAGDVEENPGPTSMALPVTALLLPLALLLHAARPDIQMTQTTSSLSASLGDRVTISCRASQDISNYLNWYQQKPDGTVKLLIYYTSILHSGVPSRFSGSGSGTDYSLTISNLEQEDFATYFCQQGNTLPWTFGGGTKLEIKAGGGGSGGGGSGGGGSEVQLVESGGGLVKPGGSLKLSCAASGFAFSIYDMSWVRQTPEKRLEWVAYISSGGGTYYPDTVKGRFTISRDNAKNTLYLQMSSLKSEDTAMYYCARHSGYGTHWGVLFAYWGQGTLVTVSATREQKLISEEDGSGIQNPDPAVYQLRDSKSSDKSVCLFTDFDSQTNVSQSKDSDVYITDKCVLDMRSMDFKSNSAVAWSNKSDFACANAFNNSIIPEDTFFPSSDVPCDVKLVEKSFETDTNLNFQNLSVIGFRILLLKVAGFNLLMTLRLWSSRAKRSGSGVKQTLNFDLLKLAGDVESNPGPSRGHMTEYKPTVRLATRDDVPRAVRTLAAAFADYPATRHTVDPDRHIERVTELQELFLTRVGLDIGKVWVADDGAAVAVWTTPESVEAGAVFAEIGPRMAELSGSRLAAQQQMEGLLAPHRPKEPAWFLATVGVSPDHQGKGLGSAVVLPGVEAAERAGVPAFLETSAPRNLPFYERLGFTVTADVEVPEGPRTWCMTRKPGA
B4: 081516-I03 (protein)
chain: MALPVTALLLPLALLLHAARPLEGKPIPNPLLGLDSTGSGEDLKNVFPPEVAVFEPSKAEIAHTQKATLVCLATGFYPDHVELSWWVNGKEVHSGVCTDPQPLKEQPALNDSRYCLSSRLRVSATFWQNPRNHFRCQVQFYGLSENDEWTQDRAKPVTQIVSAEAWGRADCGITSASYHQGVLSATILYEILLGKATLYAVLVSALVLMAMVKRKDSRGRAKRSGSGATNFSLLKQAGDVEENPGPTSTMALPVTALLLPLALLLHAARPDIVMTQSPSSLSASVGDRVTITCKASQSVTNDVAWYQQKPGKAPKLLIYYASNRYTGVPSRFSGSGSGTDFTLTISSLQPEDFATYYCQQDYRSPWTFGGGTKVEIKRGGGGSGGGGSGGGGSQVQLEESGGGVVRPGRSLRLSCAASGFTFSDYGVNWIRQAPGKGLEWVTIIWGDGRTDYNSALKSRFTVSRNNSNNTLSLQMNSLTTEDTAVYYCVRAPGNRAMEYWGQGVLVTVSSTREQKLISEEDLGSGTPFPSLAPPIMLLVDGKQQMVVVCLVLDVAPPGLDSPIWFSAGNGSALDAFTYGPSPATDGTWTNLAHLSLPSEELASWEPLVCHTGPGAEGHSRSTQPMHLSGEASTARTCPQEPLRGTPGGALWLGVLRLLLFKLLLFDLLLTCSCLCDPAGPLPSPATTTRLRALGSHRLHPATETGGREATSSPRPQPRDRRWGDTPPGRKPGSPVRAKRSGSGVKQTLNFDLLKLAGDVESNPGPSRSRGHMTEYKPTVRLATRDDVPRAVRTLAAAFADYPATRHTVDPDRHIERVTELQELFLTRVGLDIGKVWVADDGAAVAVWTTPESVEAGAVFAEIGPRMAELSGSRLAAQQQMEGLLAPHRPKEPAWFLATVGVSPDHQGKGLGSAVVLPGVEAAERAGVPAFLETSAPRNLPFYERLGFTVTADVEVPEGPRTWCMTRKPGA
modifications: Polynucleotide encoding a Synthetic Immune Receptor (SIR)
B5: 091216-A03 (protein)
chain: MALPVTALLLPLALLLHAARPLEGKPIPNPLLGLDSTGSGEDLKNVFPPEVAVFEPSKAEIAHTQKATLVCLATGFYPDHVELSWWVNGKEVHSGVCTDPQPLKEQPALNDSRYCLSSRLRVSATFWQNPRNHFRCQVQFYGLSENDEWTQDRAKPVTQIVSAEAWGRADCGITSASYHQGVLSATILYEILLGKATLYAVLVSALVLMAMVKRKDSRGRAKRSGSGATNFSLLKQAGDVEENPGPTSTMALPVTALLLPLALLLHAARPDIQMTQSPSSLSASVGDRVTITCRSSQSIVHSVGNTFLEWYQQKPGKAPKLLIYKVSNRFSGVPSRFSGSGSGTDFTLTISSLQPEDFATYYCFQGSQFPYTFGQGTKVEIKRGGGGSGGGGSGGGGSEVQLVESGGGLVQPGGSLRLSCAASGYEFSRSWMNWVRQAPGKGLEWVGRIYPGDGDTNYSGKFKGRFTISADTSKNTAYLQMNSLRAEDTAVYYCARDGSSWDWYFDVWGQGTLVTVSSTREQKLISEEDGSGIQNPDPAVYQLRDSKSSDKSVCLFTDFDSQTNVSQSKDSDVYITDKCVLDMRSMDFKSNSAVAWSNKSDFACANAFNNSIIPEDTFFPSSDVPCDVKLVEKSFETDTNLNFQNLSVIGFRILLLKVAGFNLLMTLRLWSSRAKRSGSGVKQTLNFDLLKLAGDVESNPGPSRGHMTEYKPTVRLATRDDVPRAVRTLAAAFADYPATRHTVDPDRHIERVTELQELFLTRVGLDIGKVWVADDGAAVAVWTTPESVEAGAVFAEIGPRMAELSGSRLAAQQQMEGLLAPHRPKEPAWFLATVGVSPDHQGKGLGSAVVLPGVEAAERAGVPAFLETSAPRNLPFYERLGFTVTADVEVPEGPRTWCMTRKPGA
modifications: Synthetic Immune Receptor (SIR)
B6: 040417-R02 (protein)
chain: MALPVTALLLPLALLLHAARPEVQLVESGGGLVQPGRSLRLSCAASGFTFDDYAMHWVRQAPGKGLEWVSGISWNSGSIGYADSVKGRFTISRDNAKNSLYLQMNSLRAEDTALYYCAKDKGGGYYDFWSGSDYWGQGTLVTVSSLEDLKNVFPPEVAVFEPSKAEIAHTQKATLVCLATGFYPDHVELSWWVNGKEVHSGVCTDPQPLKEQPALNDSRYCLSSRLRVSATFWQNPRNHFRCQVQFYGLSENDEWTQDRAKPVTQIVSAEAWGRADCGITSASYHQGVLSATILYEILLGKATLYAVLVSALVLMAMVKRKDSRGRAKRSGSGATNFSLLKQAGDVEENPGPTSMDWIWRILFLVGAATGAHSFESSELTQDPAVSVALGQTVRITCQGDSLRSYYASWYQQKPGQAPVLVIYGKNNRPSGIPDRFSGSSSGNTASLTITGAQAEDEADYYCNSRDSSGWVFGGGTKLTVLTRIQNPDPAVYQLRDSKSSDKSVCLFTDFDSQTNVSQSKDSDVYITDKCVLDMRSMDFKSNSAVAWSNKSDFACANAFNNSIIPEDTFFPSSDVPCDVKLVEKSFETDTNLNFQNLSVIGFRILLLKVAGFNLLMTLRLWSSRAKRSGSGVKQTLNFDLLKLAGDVESNPGPSRGHMTEYKPTVRLATRDDVPRAVRTLAAAFADYPATRHTVDPDRHIERVTELQELFLTRVGLDIGKVWVADDGAAVAVWTTPESVEAGAVFAEIGPRMAELSGSRLAAQQQMEGLLAPHRPKEPAWFLATVGVSPDHQGKGLGSAVVLPGVEAAERAGVPAFLETSAPRNLPFYERLGFTVTADVEVPEGPRTWCMTRKPGA

System: target antigen-expressing cell line
Experiment: Jurkat NFAT-GFP assay, coculture with target cell lines expressing the respective target antigen (summary Table 10A)
Assay type: cell-based, human
Set-up: key: The signs +/−, +, 2+ etc. after the name of the cell lines indicate the relative degree of positivity on the Jurkat-NFAT-GFP assay as measured by the % GFP positive cells; +: relative degree of positivity on the Jurkat-NFAT-GFP assay as measured by the % GFP positive cells; 2+: relative degree of positivity on the Jurkat-NFAT-GFP assay as measured by the % GFP positive cells
Settings: relative % GFP positive cells; for NFAT-GFP ASSAY Positive Cell lines: NALM6: SIR-expressing Jurkat-NFAT-GFP cells cocultured with NALM6; for NFAT-GFP ASSAY Positive Cell lines: RAJI: SIR-expressing Jurkat-NFAT-GFP cells cocultured with RAJI
Summary of the method: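 Jurkat cells carrying an NFAT-driven GFP reporter and lentivirally expressing a SIR were cocultured with antigen-bearing target cells (E:T ~1:2) for about 4–18 h. GFP induction read by flow cytometry as % GFP+ cells, scored positive and graded (+/−, +, 2+) against parental Jurkat-NFAT-GFP cells.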

Row | Molecule | NFAT-GFP ASSAY Positive Cell lines: NALM6 | NFAT-GFP ASSAY Positive Cell lines: RAJI
1 | B1 | (+/−) | RAJI (+/−), NALM6
2 | B2 |  | RAJI (+/−)
3 | B3 | (+/−) | RAJI (+), NALM6
4 | B4 |  | RAJI (+/−)
5 | B5 |  | RAJI (+)
6 | B6 | (+) | 
